75 sequences from the supplement of paper PMC7877785 can be followed below.

This series can be described thus: self-splicing fitness, log relative to wild type (ln ratio); higher = more splicing; Tetrahymena group I intron in knt gene, E. coli kanamycin selection, DiMSum; sequences stand for … in CUCUCU…GGAGGGAAAAGUUAUCAGGCAUGCACCUGGUAGCUAGUCUUUAAACCAAUAGAUUGCAUCGGUUUAAAAGGCAAGACCGUCAAAUUGCGGGAAAGGGGUCAACAGCCGUUCAGUACCAAGUCUCAGGGGAAACUUUGAGAUGGCCUUGCAAAGGGUAUGGUAAUAAGCUGACGGACAUGGUCCUAACCACGCAGCCAAGUCCUAAGUCAACAGAUCUUCUGUUGAUAUGGAUGCAGUUCACAGACUAAAUGUCGGUCGGGGAAGAUGUAUUCUUCUCAUAAGAUAUAGUCGGACCUCUCCUUAAUGGGAGCUAGCGGAUGAAGUGAUGCAACACUGGAGCCGCUGGGAACUAAUUUGUAUGCGAAAGUAUAUUGAUUAGUUUUGGAGUACUCGUGGUCG
In a few lines: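 Pooled colonies went to amplicon sequencing on an Illumina HiSeq 2500 after six replicate transformations. The plates were LB agar with 100 μg/mL carbenicillin, 50 μM IPTG and 0.2% rhamnose, with or without 25 μg/mL kanamycin, incubated overnight at 37°C or 30°C. The E. coli BL21(DE3) library had all eight P1ex-region intron nucleotides randomised, the intron placed in the knt kanamycin-resistance gene on pET-22b(+). DiMSum fitness is the error-weighted combination of replicate fold changes, kanamycin against none, normalised to wild type.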

± gives the uncertainty stated by the source.

Turning to ACCCAGCAAUAUUACGAUGA, the “self-splicing fitness (ln)” value by setting is: (30 °C) -1.43 ± 0.09; (37 °C) -0.256 ± 0.088.
The matching figures for ACCCAGCAAUAUUACGCAUG: -4.1 ± 0.15 and -2.58 ± 0.15.
In the case of ACCCAGCAAUAUUACGCCUC, the “self-splicing fitness (ln)” value (30 °C) was -1.05 ± 0.084 and the “self-splicing fitness (ln)” value (37 °C) is -0.0787 ± 0.11.
Consider ACCCAGCAAUAUUACGCGCC, for which the “self-splicing fitness (ln)” value is, setting by setting: (30 °C) -0.907 ± 0.064; (37 °C) 0.136 ± 0.094.
Regarding ACCCAGCAAUAUUACGCUUC, the “self-splicing fitness (ln)” value was -2.01 ± 0.076 (30 °C) and -1 ± 0.095 (37 °C).
The matching figures for ACCCAGCAAUAUUACGGAAG: -2.49 ± 0.091 and -1.02 ± 0.1.
The matching figures for ACCCAGCAAUAUUACGGACG: -1.1 ± 0.07 and -0.9 ± 0.08.
On the same counts, the results for ACCCAGCAAUAUUACGGAGA are -0.451 ± 0.048 and 0.122 ± 0.063.
As for ACCCAGCAAUAUUACGGGCG, the “self-splicing fitness (ln)” value (30 °C) was -0.609 ± 0.055 and the “self-splicing fitness (ln)” value (37 °C) was -0.0252 ± 0.077.
On the same counts, the results for ACCCAGCAAUAUUACGGUGC are -1.11 ± 0.069 and -0.261 ± 0.086.
The matching figures for ACCCAGCAAUAUUACGGUGG: -3.57 ± 0.15 and -2.76 ± 0.18.
In the case of ACCCAGCAAUAUUACGGUUC, the “self-splicing fitness (ln)” value is -2.22 ± 0.072 (30 °C) and -1.32 ± 0.094 (37 °C).
ACCCAGCAAUAUUACGGUUU: the “self-splicing fitness (ln)” value reads like this: (30 °C) -0.863 ± 0.041; (37 °C) 0.0681 ± 0.056.
The matching figures for ACCCAGCAAUAUUACGUAGG: -0.517 ± 0.064 and -0.48 ± 0.081.
As to ACCCAGCAAUAUUACGUAUG, the “self-splicing fitness (ln)” value runs as follows: (30 °C) -3.89 ± 0.14; (37 °C) -1.77 ± 0.11.
In the case of ACCCAGCAAUAUUACGUCAA, the “self-splicing fitness (ln)” value runs as follows: (30 °C) -1.88 ± 0.099; (37 °C) -1.59 ± 0.11.
On the same counts, the results for ACCCAGCAAUAUUACGUCCG are -3.83 ± 0.22 and -0.701 ± 0.14.
On to ACCGAGCAAUAUUACGAAUA, for which the “self-splicing fitness (ln)” value (30 °C) was -3.02 ± 0.32 and the “self-splicing fitness (ln)” value (37 °C) is -2.41 ± 0.2.
With ACCGAGCAAUAUUACGACAU, the “self-splicing fitness (ln)” value is -2.219 ± 0.015 (30 °C) and -1.3 ± 0.033 (37 °C).
The matching figures for ACCGAGCAAUAUUACGCAAA: -3.62 ± 0.24 and -3.11 ± 0.24.
The matching figures for ACCGAGCAAUAUUACGCAAG: -3.36 ± 0.17 and -2.35 ± 0.18.
As for ACCGAGCAAUAUUACGCAUU, the “self-splicing fitness (ln)” value reads like this: (30 °C) -3.91 ± 0.17; (37 °C) -1.78 ± 0.12.
For the sequence ACCGAGCAAUAUUACGCGAG, the “self-splicing fitness (ln)” value is -2.75 ± 0.19 (30 °C) and -2.06 ± 0.15 (37 °C).
As for ACCGAGCAAUAUUACGCUAC, the “self-splicing fitness (ln)” value is, setting by setting: (30 °C) -3.58 ± 0.19; (37 °C) -2.86 ± 0.24.
The matching figures for ACCGAGCAAUAUUACGCUUA: -1.56 ± 0.14 and -1.63 ± 0.17.
Turning to ACCGAGCAAUAUUACGCUUU, the “self-splicing fitness (ln)” value was -3.06 ± 0.28 (30 °C) and -1.56 ± 0.15 (37 °C).
Turning to ACCGAGCAAUAUUACGGACA, the “self-splicing fitness (ln)” value runs as follows: (30 °C) -1.25 ± 0.15; (37 °C) -0.523 ± 0.15.
The matching figures for ACCGAGCAAUAUUACGGAUG: -2.12 ± 0.12 and -1.85 ± 0.098.
Regarding ACCGAGCAAUAUUACGGCAA, the “self-splicing fitness (ln)” value by setting is: (30 °C) -1.19 ± 0.12; (37 °C) -1.48 ± 0.12.
The matching figures for ACCGAGCAAUAUUACGGUUU: -3.42 ± 0.14 and -2.35 ± 0.18.
On the same counts, the results for ACCGAGCAAUAUUACGUAAC are -4.02 ± 0.32 and -2.88 ± 0.35.
On the same counts, the results for ACCGAGCAAUAUUACGUAGA are -4.48 ± 0.29 and -2.69 ± 0.18.
On to ACCGAGCAAUAUUACGUCAU, for which the “self-splicing fitness (ln)” value (30 °C) was -5.01 ± 0.34 and the “self-splicing fitness (ln)” value (37 °C) is -2.68 ± 0.14.
Take ACCGAGCAAUAUUACGUCUC: the “self-splicing fitness (ln)” value reads like this: (30 °C) -3.22 ± 0.32; (37 °C) -2.77 ± 0.48.
As for ACCGAGCAAUAUUACGUCUU, the “self-splicing fitness (ln)” value by setting is: (30 °C) -2.91 ± 0.12; (37 °C) -2.22 ± 0.13.
The matching figures for ACCGAGCAAUAUUACGUGCU: -3.32 ± 0.25 and -2.49 ± 0.27.
The matching figures for ACCGAGCAAUAUUACGUUUU: -3.3 ± 0.15 and -2.59 ± 0.15.
On the same counts, the results for ACCUAGCAAUAUUACGAAAC are -2.68 ± 0.15 and -2.31 ± 0.19.
With ACCUAGCAAUAUUACGAGAA, the “self-splicing fitness (ln)” value is -2.97 ± 0.35 (30 °C) and -2.29 ± 0.31 (37 °C).
On the same counts, the results for ACCUAGCAAUAUUACGAGAG are -2.34 ± 0.13 and -0.462 ± 0.08.
Regarding ACCUAGCAAUAUUACGAUUA, the “self-splicing fitness (ln)” value is -2.05 ± 0.15 (30 °C) and -1.51 ± 0.12 (37 °C).
The matching figures for ACCUAGCAAUAUUACGCAUG: -2.27 ± 0.15 and -1.42 ± 0.14.
With ACCUAGCAAUAUUACGCCGA, the “self-splicing fitness (ln)” value was -2.23 ± 0.13 (30 °C) and -1.01 ± 0.13 (37 °C).
As to ACCUAGCAAUAUUACGCCUU, the “self-splicing fitness (ln)” value was -1.43 ± 0.098 (30 °C) and 0.204 ± 0.12 (37 °C).
On the same counts, the results for ACCUAGCAAUAUUACGCGUG are -0.901 ± 0.077 and -0.11 ± 0.1.
Turning to ACCUAGCAAUAUUACGCUAG, the “self-splicing fitness (ln)” value is, setting by setting: (30 °C) -3.86 ± 0.25; (37 °C) -2.79 ± 0.28.
The matching figures for ACCUAGCAAUAUUACGCUGA: -1.59 ± 0.082 and -0.127 ± 0.09.
Take ACCUAGCAAUAUUACGGAGG: the “self-splicing fitness (ln)” value runs as follows: (30 °C) -2.4 ± 0.14; (37 °C) -2.16 ± 0.21.
For ACCUAGCAAUAUUACGGGCC, the “self-splicing fitness (ln)” value is -2.34 ± 0.18 (30 °C) and -0.63 ± 0.16 (37 °C).
The matching figures for ACCUAGCAAUAUUACGUACG: -2.46 ± 0.16 and -1.02 ± 0.14.
On the same counts, the results for ACCUAGCAAUAUUACGUCUA are -2.44 ± 0.21 and -2.04 ± 0.25.
The matching figures for ACCUAGCAAUAUUACGUGCG: -1.5 ± 0.069 and -0.773 ± 0.077.
As for ACCUAGCAAUAUUACGUGUC, the “self-splicing fitness (ln)” value was -4.29 ± 0.29 (30 °C) and -2.24 ± 0.17 (37 °C).
Consider ACCUAGCAAUAUUACGUUUG, for which the “self-splicing fitness (ln)” value runs as follows: (30 °C) -2.6 ± 0.08; (37 °C) -2.03 ± 0.11.
Regarding ACGAAGCAAUAUUACGAACC, the “self-splicing fitness (ln)” value was -1.75 ± 0.14 (30 °C) and -0.895 ± 0.19 (37 °C).
The matching figures for ACGAAGCAAUAUUACGAAUU: -3.63 ± 0.17 and -2.37 ± 0.15.
For the sequence ACGAAGCAAUAUUACGACCC, the “self-splicing fitness (ln)” value reads like this: (30 °C) -0.88 ± 0.22; (37 °C) 0.121 ± 0.26.
On the same counts, the results for ACGAAGCAAUAUUACGACCG are -0.458 ± 0.12 and 0.219 ± 0.14.
For the sequence ACGAAGCAAUAUUACGACGC, the “self-splicing fitness (ln)” value by setting is: (30 °C) -0.651 ± 0.18; (37 °C) -0.221 ± 0.16.
On the same counts, the results for ACGAAGCAAUAUUACGAGAG are -3.39 ± 0.28 and -2.53 ± 0.22.
For the sequence ACGAAGCAAUAUUACGAGGU, the “self-splicing fitness (ln)” value was -3.96 ± 0.22 (30 °C) and -3.57 ± 0.22 (37 °C).
The matching figures for ACGAAGCAAUAUUACGAUAC: -3.68 ± 0.2 and -2.2 ± 0.22.
As for ACGAAGCAAUAUUACGAUUC, where the note is “37 °C”, the “self-splicing fitness (ln)” value was -2.8 ± 0.33.
ACGAAGCAAUAUUACGCAUA: the “self-splicing fitness (ln)” value (30 °C) is -1.44 ± 0.08 and the “self-splicing fitness (ln)” value (37 °C) was -0.782 ± 0.072.
The matching figures for ACGAAGCAAUAUUACGCCAC: -3.08 ± 0.19 and -2.56 ± 0.28.
On to ACGAAGCAAUAUUACGCCCA, for which the “self-splicing fitness (ln)” value is -1.11 ± 0.17 (30 °C) and -0.748 ± 0.26 (37 °C).
On the same counts, the results for ACGAAGCAAUAUUACGCCGA are -0.564 ± 0.086 and -0.414 ± 0.1.
Regarding ACGAAGCAAUAUUACGGCCA, the “self-splicing fitness (ln)” value runs as follows: (30 °C) -0.778 ± 0.091; (37 °C) 0.402 ± 0.095.
The matching figures for ACGAAGCAAUAUUACGGCUA: 0.0742 ± 0.099 and 0.022 ± 0.11.
With ACGAAGCAAUAUUACGGGGC, the “self-splicing fitness (ln)” value is -3.36 ± 0.14 (30 °C) and -2.76 ± 0.16 (37 °C).
With ACGAAGCAAUAUUACGGGUG, the “self-splicing fitness (ln)” value runs as follows: (30 °C) -1.74 ± 0.069; (37 °C) -1.36 ± 0.083.
The matching figures for ACGAAGCAAUAUUACGGUAU: -2.57 ± 0.093 and -1.27 ± 0.091.
On the same counts, the results for ACGAAGCAAUAUUACGGUUU are -3.17 ± 0.13 and -1.89 ± 0.12.
On the same counts, the results for ACGAAGCAAUAUUACGUCGA are -2.34 ± 0.12 and -1.65 ± 0.1.
On to ACGAAGCAAUAUUACGUCGC, for which the “self-splicing fitness (ln)” value was -3.22 ± 0.21 (30 °C) and -1.24 ± 0.17 (37 °C).
